Measured values as given in doi:10.1101/2025.11.18.689095 (bioRxiv, 2025).
Where no end group is shown, it is not given here.

B1: human Tom70 (residues 108–608) (domain or fragment)
chain: MNSLDRAQAAKNKGNKYFKAGKYEQAIQCYTEAISLCPTEKNVDLSTFYQNRAAAFEQLQKWKEVAQDCTKAVELNPKYVKALFRRAKAHEKLDNKKECLEDVTAVCILEGFQNQQSMLLADKVLKLLGKEKAKEKYKNREPLMPSPQFIKSYFSSFTDDIISQPMLKGEKSDEDKDKEGEALEVKENSGYLKAKQYMEEENYDKIISECSKEIDAEGKYMAEALLLRATFYLLIGNANAAKPDLDKVISLKEANVKLRANALIKRGSMYMQQQQPLLSTQDFNMAADIDPQNADVYHHRGQLKILLDQVEEAVADFDECIRLRPESALAQAQKCFALYRQAYTGNNSSQIQAAMKGFEEVIKKFPRCAEGYALYAQALTDQQQFGKADEMYDKCIDLEPDNATTYVHKGLLQLQWKQDLDRGLELISKAIEIDNKCDFAYETMGTIEVQRGNMEKAIDMFNKAINLAKSEMEMAHLYSLCDAAHAQTEVAKKYGLKPPTL
notes: human Tom70 (translocase of outer mitochondria membrane 70), residues 108-608; N-terminal Avi tag, His6 tag, (GGS)5 linker and TEV site removed by TEV protease; also called hTom70; free Tom70; source: E. coli BL21 (DE3), purified (Ni-NTA, TEV cleavage, second Ni column, SEC); not shown: Avi, N-terminal, cleaved; His6, N-terminal, cleaved

Columns and labels:
Settings in all cases: both partners purified
[1] = target: T1, human Hsp90α (residues 1–732), full-length (human, UniProt P07900 1-732); test: ITC; Tom70 (400 μM), Tom70:Orf9b_(Helix) complex (400 μM), Tom70:Orf9b complex (500 μM) or truncation mutant complexes titrated into Hsp90 (20 μM); 20°C; 20 mM sodium phosphate pH 8, 150 mM NaCl, 2 mM TCEP, 10% glycerol; 1:1 binding model
T1 construct: human Hsp90α, residues 1-732; also called full-length Hsp90; heat shock protein 90; source: E. coli BL21 Star (DE3) pLysS, purified (Ni-INDIGO, TEV cleavage, second Ni-INDIGO, HiPrep Q); not shown: Avi, N-terminal, cleaved; His6, N-terminal, cleaved

[2] = target: T2, biotinylated human Hsp90α (residues 1–732), tags not cleaved (human, UniProt P07900 1-732, biotin (enzymatic protein biotinylation kit)); test: BLI + ITC; kon estimated indirectly as koff from BLI (immobilised biotinylated Hsp90) divided by KD from ITC (untagged Hsp90)
T2 construct: human Hsp90α, residues 1-732; N-terminal Avi tag, His6 tag, (GGS)5 linker and TEV site remain on the chain; held on streptavidin probes; also called biotinylated Hsp90; surface-immobilized Hsp90; source: E. coli BL21 Star (DE3) pLysS, purified (Ni-INDIGO, HiPrep Q; no TEV cleavage), enzymatically biotinylated; not shown: Avi, N-terminal, kept; His6, N-terminal, kept

[3] = target: T1, human Hsp90α (residues 1–732), …; test: NMR titration
[4] = target: B1; test: ITC; Hsp90_(EEVD) (400–500 μM) titrated into Tom70 or its complexes (30 μM) in the cell; 20°C; 20 mM sodium phosphate pH 8, 150 mM NaCl, 2 mM TCEP, 10% glycerol; 1:1 binding model

For B1, the Kd [1] was 3000 nM and the kon [2] was 500000 M⁻¹ s⁻¹.

B2: ^19F-labeled Tom70 (5-fluoro-tryptophan, residues 108–608) (domain or fragment)
chain: MNSLDRAQAAKNKGNKYFKAGKYEQAIQCYTEAISLCPTEKNVDLSTFYQNRAAAFEQLQKWKEVAQDCTKAVELNPKYVKALFRRAKAHEKLDNKKECLEDVTAVCILEGFQNQQSMLLADKVLKLLGKEKAKEKYKNREPLMPSPQFIKSYFSSFTDDIISQPMLKGEKSDEDKDKEGEALEVKENSGYLKAKQYMEEENYDKIISECSKEIDAEGKYMAEALLLRATFYLLIGNANAAKPDLDKVISLKEANVKLRANALIKRGSMYMQQQQPLLSTQDFNMAADIDPQNADVYHHRGQLKILLDQVEEAVADFDECIRLRPESALAQAQKCFALYRQAYTGNNSSQIQAAMKGFEEVIKKFPRCAEGYALYAQALTDQQQFGKADEMYDKCIDLEPDNATTYVHKGLLQLQWKQDLDRGLELISKAIEIDNKCDFAYETMGTIEVQRGNMEKAIDMFNKAINLAKSEMEMAHLYSLCDAAHAQTEVAKKYGLKPPTL
modifications: 5-fluoro-tryptophan at W169 and W523
notes: human Tom70, residues 108-608; also called ^19F Tom70; 5F-Trp Tom70; source: E. coli BL21(DE3) in M9 media supplemented with 5-fluoro-tryptophan, purified as unlabeled Tom70; not shown: Avi, N-terminal, cleaved; His6, N-terminal, cleaved
B2: binds [3].

B3: Hsp90_(EEVD) peptide (peptide)
peptide: YDTSRMEEVD-OH
notes: tyrosine added to aid with quantification; C-terminal residues 724-732 of human Hsp90α; 10 residues: an added N-terminal Tyr and nine Hsp90 residues; source: synthetic peptide (LifeTein)
In the case of B3, the “fold lower affinity than full-length Hsp90 for free Tom70” value [4] is reported as 4 fold.
